How the values were obtained:
[1] = molecular target: the molecule itself; assay: SEC; Superdex 200 HR 10/30, 50 mM Tris pH 7.0/0.15 M NaCl, 0.3 mL/min; native mass against protein standards
[2] = molecular target: the molecule itself; assay: SEC; Superdex 200 HR 10/30, 50 mM Tris pH 8.3/0.15 M NaCl, 0.3 mL/min; native mass against protein standards

Row | Protein | stoichiometry N [1] | stoichiometry N [2]
1 | recombinant mature wild-type fructose-1,6-bisphosphatase 1 (cFBP1) of Arabidopsis (enzyme, Arabidopsis thaliana, UniProt P25851 60-417, looked up, Fructose-1,6-bisphosphatase 1, chloroplastic (cFBP1), Arabidopsis thaliana, gene At3g54050; ca. 40 kDa on SDS-PAGE; numbers count on: the mature protein; The number of chains depends on pH: tetramer at pH 7.0, dimer at pH 8.3, mainly dimer at pH 7.8 when fresh; Expressed from pDEST17, which to my knowledge adds an N-terminal His6; No step to cleave the tag is described; also called WT cFBP1; WT) AVAADAAETKTAARKKSGYELQTLTGWLLRQEMKGEIDAELTIVMSSISLACKQIASLVQRAGISNLTGVQGAVNIQGEDQKKLDVISNEVFSNCLRSSGRTGIIASEEEDVPVAVEESYSGNYVVVFDPLDGSSNIDAAVSTGSIFGIYSPNDECIVDDSDDISALGSEEQRCIVNVCQPGNNLLAAGYCMYSSSVIFVLTLGKGVFSFTLDPMYGEFVLTQENIEIPKAGRIYSFNEGNYQMWDDKLKKYIDDLKDPGPTGKPYSARYIGSLVGDFHRTLLYGGIYGYPRDAKSKNGKLRLLYECAPMSFIVEQAGGKGSDGHSRVLDIQPTEIHQRVPLYIGSTEEVEKLEKYLA | 4 | 2
2 | recombinant mature C95S variant of fructose-1,6-bisphosphatase 1 (cFBP1) of Arabidopsis (enzyme, Arabidopsis thaliana, UniProt P25851 60-417, looked up, Fructose-1,6-bisphosphatase 1, chloroplastic (cFBP1), Arabidopsis thaliana, gene At3g54050; Cys95 replaced by Ser; numbers count on: the mature protein; The number of chains depends on pH: tetramer at pH 7.0, dimer at pH 8.3, mainly tetramer at pH 7.8; Expressed from pDEST17, which to my knowledge adds an N-terminal His6; No step to cleave the tag is described; also called C95S cFBP1; cFBP1 C95S) AVAADAAETKTAARKKSGYELQTLTGWLLRQEMKGEIDAELTIVMSSISLACKQIASLVQRAGISNLTGVQGAVNIQGEDQKKLDVISNEVFSNSLRSSGRTGIIASEEEDVPVAVEESYSGNYVVVFDPLDGSSNIDAAVSTGSIFGIYSPNDECIVDDSDDISALGSEEQRCIVNVCQPGNNLLAAGYCMYSSSVIFVLTLGKGVFSFTLDPMYGEFVLTQENIEIPKAGRIYSFNEGNYQMWDDKLKKYIDDLKDPGPTGKPYSARYIGSLVGDFHRTLLYGGIYGYPRDAKSKNGKLRLLYECAPMSFIVEQAGGKGSDGHSRVLDIQPTEIHQRVPLYIGSTEEVEKLEKYLA | 4 | 2

— paper PMC12319266, “The Highly Conserved Cys95 Residue of Fructose‐1,6‐Bisphosphatase 1 Mediates the pH‐Driven Structure and Activity of the Enzyme and Photosynthesis” (Plant, Cell & Environment, 2025)
